Data as given in US5998188.

Biological target: MAP kinase (ERKs) of PC12 cells

Row | Molecule | Gal4-Elk-1 dependent luciferase activity induced by Raf BxB in PC12 cells (% of maximal levels) | Gal4-Elk-1 dependent luciferase activity induced by Raf BxB in PC12 cells (% of maximally stimulated levels)
1 | MKP-2 (rat mitogen-activated protein kinase phosphatase-2), full length, expressed from CMV-MKP-2 in PC12 cells | 90 | 
2 | MKP-1, full length, expressed from CMV-MKP-1 in PC12 cells (enzyme) MVMEVGILDAGGLRALLREGAAQCLLLDCRSFFAFNAGHIAGSVNVRFSTIVRRRAKGAMGLEHIVPNAELRGRLLAGAYHAVVLLDERSASLDGAKRDGTLALAAGALCREARSTQVFFLQGGYEAFSASCPELCSKQSTPTGLSLPLSTSVPDSAESGCSSCSTPLYDQGGPVEILSFLYLGSAYHASRKDMLDALGITALINVSANCPNHFEGHYQYKSIPVEDNHKADISSWFNEAIDFIDSIKDAGGRVFVHCQAGISRSATICLAYLMRTNRVKLDEAFEFVKQRRSIISPNFSFMGQLLQFESQVLAPHCSAEAGSPAMAVLDRGTSTTTVFNFPVSIPVHPTNSALNYLKSPITTSPSC |  | > 60
